{"source": "patent US6830937", "about": "(Bristol-Myers Squibb, dated 2004)", "molecules": {"B1": {"name": "B7 antigen (ligand, UniProt P33681 35-288, looked up)", "chain": "VIHVTKEVKEVATLSCGHNVSVEELAQTRIYWQKEKKMVLTMMSGDMNIWPEYKNRTIFDITNNLSIVILALRPSDEGTYECVVLKYEKDAFKREHLAEVTLSVKADFPTPSISDFEIPTSNIRRIICSTSGGFPEPHLSWLENGEELNAINTTVSQDPETELYAVSSKLDFNMTTNHSFMCLIKYGHLRVNQTFNWNTTKQEHFPDNLLPSWAITLISVNGIFVICCLTYCFAPRCRERRRNERLRRESVRPV"}}, "key": {"CD28 receptor [1]": {"target": "T1, CD28 receptor (human, UniProt P10747 19-220)", "test": "cell-based or functional assay"}, "B7 antigen [2]": {"target": "B7 antigen (UniProt P33681)", "test": "flow cytometry, direct staining of Raji cells (BL), no unlabeled BB-1"}, "B7 antigen [3]": {"target": "B7 antigen (UniProt P33681)", "test": "flow cytometry, direct staining of Jijoye cells after preincubation with unlabeled BB-1"}, "B7 antigen [4]": {"target": "B7 antigen (UniProt P33681)", "test": "flow cytometry, direct staining of T51 cells after preincubation with unlabeled BB-1"}, "B7 antigen [5]": {"target": "B7 antigen (UniProt P33681)", "test": "flow cytometry, direct staining of 5E1 cells (B-LCL), no unlabeled BB-1"}, "B7 antigen [6]": {"target": "B7 antigen (UniProt P33681)", "test": "flow cytometry, direct staining of Raji cells after preincubation with unlabeled BB-1"}, "B7 antigen [7]": {"target": "B7 antigen (UniProt P33681)", "test": "flow cytometry, direct staining of Daudi cells after preincubation with unlabeled BB-1"}, "[8]": {"target": "B7Ig fusion protein (human) [IgG part: P01857]", "test": "competition of 125I-B7Ig binding to immobilized CD28Ig"}, "B7 antigen [9]": {"target": "B7 antigen (UniProt P33681)", "test": "flow cytometry, direct staining of T51 cells (B-LCL), no unlabeled BB-1"}, "B7 antigen [10]": {"target": "B7 antigen (UniProt P33681)", "test": "flow cytometry, direct staining of Jijoye cells (BL), no unlabeled BB-1"}, "B7 antigen [11]": {"target": "B7 antigen (UniProt P33681)", "test": "flow cytometry, direct staining of Daudi cells (BL), no unlabeled BB-1"}, "B7 antigen [12]": {"target": "B7 antigen (UniProt P33681)", "test": "flow cytometry, direct staining of 5E1 cells after preincubation with unlabeled BB-1"}, "B7 antigen [13]": {"target": "B7 antigen (UniProt P33681)", "test": "cell-based or functional assay"}, "CD28 receptor [14]": {"target": "T1, CD28 receptor", "test": "flow cytometry, direct staining of phytohemagglutinin-stimulated T cells"}, "CD28 receptor [15]": {"target": "T1, CD28 receptor", "test": "flow cytometry, direct staining of CD28+ CHO cells"}}, "data": [{"molecule": "mAb 9.3 (Fab fragments)", "values": [{"measurement": "[3H]-T incorporation by PHA blasts stimulated with B7+ CHO cells (40:1), 9.3 Fab at 10 µg/ml", "setting": "CD28 receptor [1]", "result": 132000, "unit": "cpm"}]}, {"molecule": "mAb BB-1 (anti-B7) (antibody)", "values": [{"measurement": "mean fluorescence, -COLD", "setting": "B7 antigen [2]", "result": 7.1, "unit": "linear units"}, {"measurement": "mean fluorescence, +COLD", "setting": "B7 antigen [3]", "result": 2.8, "unit": "linear units"}, {"measurement": "mean fluorescence, +COLD", "setting": "B7 antigen [4]", "result": 3, "unit": "linear units"}, {"measurement": "mean fluorescence, -COLD", "setting": "B7 antigen [5]", "result": 13, "unit": "linear units"}, {"measurement": "mean fluorescence, +COLD", "setting": "B7 antigen [6]", "result": 2.8, "unit": "linear units"}, {"measurement": "mean fluorescence, +COLD", "setting": "B7 antigen [7]", "result": 2.8, "unit": "linear units"}, {"measurement": "IC50", "setting": "[8]", "result": 140, "unit": "nM"}, {"measurement": "mean fluorescence, -COLD", "setting": "B7 antigen [9]", "result": 16.4, "unit": "linear units"}, {"measurement": "mean fluorescence, -COLD", "setting": "B7 antigen [10]", "result": 17.8, "unit": "linear units"}, {"measurement": "mean fluorescence, -COLD", "setting": "B7 antigen [11]", "result": 6.4, "unit": "linear units"}, {"measurement": "mean fluorescence, +COLD", "setting": "B7 antigen [12]", "result": 2.4, "unit": "linear units"}, {"measurement": "[3H]-T incorporation by PHA blasts stimulated with B7+ CHO cells (40:1), BB-1 at 10 µg/ml", "setting": "B7 antigen [13]", "result": 98300, "unit": "cpm"}, {"measurement": "inhibition of adhesion of Jijoye cells to CD28+ CHO cells", "setting": "B7 antigen [13]", "result": 60, "unit": "%"}]}, {"molecule": "monoclonal antibody (mAb) 9.3 (anti-CD28)", "values": [{"measurement": "mean channel fluorescence (linear fluorescence units)", "setting": "CD28 receptor [14]", "result": 11.3}, {"measurement": "[3H]-T incorporation by PBL, +Anti-CD3, Exp. 1, mAb 9.3 (immob.)", "setting": "CD28 receptor [1]", "result": 137000, "unit": "cpm"}, {"measurement": "[3H]-T incorporation by PBL, +Anti-CD3, Exp. 1, mAb 9.3 (soln.)", "setting": "CD28 receptor [1]", "result": 156000, "unit": "cpm"}, {"measurement": "[3H]-T incorporation by PBL, +Anti-CD3, Exp. 2, mAb 9.3 (soln.)", "setting": "CD28 receptor [1]", "result": 75800, "unit": "cpm"}, {"measurement": "[3H]-T incorporation by PBL, -Anti-CD3, Exp. 1, mAb 9.3 (immob.)", "setting": "CD28 receptor [1]", "result": 100, "unit": "cpm"}, {"measurement": "[3H]-T incorporation by PBL, -Anti-CD3, Exp. 1, mAb 9.3 (soln.)", "setting": "CD28 receptor [1]", "result": 300, "unit": "cpm"}, {"measurement": "[3H]-T incorporation by PBL, -Anti-CD3, Exp. 2, mAb 9.3 (soln.)", "setting": "CD28 receptor [1]", "result": 400, "unit": "cpm"}, {"measurement": "half-maximal inhibition of CD28-mediated adhesion (PM lymphoblastoid cells to CD28+ CHO cells)", "setting": "CD28 receptor [1]", "result": 10, "unit": "nM"}, {"measurement": "inhibition of adhesion of B7 transfected COS cells to CD28+ CHO cells when EDTA was omitted", "setting": "CD28 receptor [1]", "result": 40, "unit": "%"}, {"measurement": "reduction of adhesion of T51 cells to CD28+ CHO cells by mAb 9.3 alone (no EDTA)", "setting": "CD28 receptor [1]", "result": 62, "unit": "%"}, {"measurement": "reduction of adhesion of T51 cells to CD28+ CHO cells by mAb 9.3 plus EDTA", "setting": "CD28 receptor [1]", "result": 93, "unit": "%"}, {"measurement": "mean channel fluorescence (linear fluorescence units)", "setting": "CD28 receptor [15]", "result": 116}]}, {"molecule": "B1", "values": [{"measurement": "adhesion of 51Cr-labeled T51 cells to CD28+ CHO cells relative to CD28- CHO cells, with EDTA", "setting": "CD28 receptor [1]", "result": 17, "unit": "fold"}, {"measurement": "adhesion of 51Cr-labeled T51 cells to CD28+ CHO cells relative to CD28- CHO cells, without EDTA", "setting": "CD28 receptor [1]", "result": 5.5, "unit": "fold"}]}]}
